# Residues, ends and D or L forms follow the SMILES beside them. *: point of attachment. Cbz = O=C(OCc1ccccc1)*
# Experiments:
# Assay type in all cases: cell-based
# [1] = target: T1, mutant (A53T) α-synuclein (Homo sapiens, UniProt P37840, A53T); assay: ELISA of aggregated α-synuclein (Syn-O4 capture) in lysates of transfected HEK293 cells
# T1 construct: expressed in transfected cells; host or cells: HEK293
# Experimental: Cells were also treated with either Bafilomycin A1, an inhibitor of late phase autophagy (10 nM and 100 nM), or MG132, a proteasome inhibitor (0.1 μM and 1 μM). Aggregated synuclein in cell lysates were determined by ELISA using an anti-aggregated synuclein antibody.
# Expression vector plasmids encoding various protein constructs were transfected into HEK293 cells with Lipofectamine 3000 transfection reagent (Thermo Fisher Scientific). One day after transfection, culture medium was replaced with fresh medium containing bafilomycin al (BFA) or MG132, and cells were incubated for additional 48 hours. Cells were lysed in lysis buffer (20 mM Tris, pH 7.4, 150 mM NaCl, 1 mM EDTA, 0.1% NP-40) supplemented with protease inhibitor cocktail (Complete Protease Inhibitor Cocktail; Sigma) and 2 mM PMSF. After brief sonication, cell lysates were analyzed in ELISA or immunoblotting assay.
# The aggregation status of expressed α-synuclein was monitored with α-synuclein aggregate-specific antibody Syn-O4 (BioLegend). Syn-O4 is a conformation-specific monoclonal antibody that recognizes specifically α-synuclein aggregates but not the soluble, monomeric form of the protein^58. Microtiter plate wells were coated with Syn-O4 overnight at 4° C., and after coating, the wells were washed three times with PBS, blocked for one hour with PBS containing 1% BSA, and washed again with PBS. […]
# [2] = target: T1, mutant (A53T) α-synuclein; assay: Immunoblot of total α-synuclein in lysates of transfected HEK293 cells
# Experimental: (§1) FIG. 3A: Wild type (WT) α-synuclein (Syn(WT): bars 1-3) or mutant α-synuclein (Syn(A53T): bars 4-6) was expressed alone or with a Flag epitope-tagged fusion protein comprising the J-domain DnaJB1 and a α-synuclein-binding domain (J-SynBP1: bars 2 and 5) or a control fusion protein construct comprising a mutated J-domain (containing a P33Q substitution) and a α-synuclein-binding peptide (J(MT)-SynBP1: bars 3 and 6) in HEK293 cells. Two days later, cells were homogenized in Tris buffer (10 mM Tris, pH7.4, 140 mM NaCl, 1 mM EDTA supplemented with protease inhibitor cocktail). Aggregation of mutant α-synuclein levels were quantified with sandwich ELISA, in which aggregated α-synuclein proteins were captured by coated-Syn-O4 antibody, followed by detection with HRP-conjugated anti-α-synuclein antibody (BioLegend: A15115A). FIG. 3B Lysates were prepared from HEK293 cells transiently transfected with wildtype Syn(WT) (lanes 1-3) or mutant Syn(A53T) (lane 4-6) alone or co-expressed with the fusion protein constructs. After brief sonication, the cell lysate was subjected to SDS-PAGE/immuno blotting with anti-α-synuclein antibody (Ab-2: top panel), Flag antibody (middle panel) or anti-Tubulin antibody (bottom panel).
# Cells were transfected with either wildtype (lane 2) or mutant (lanes 3-8) α-synuclein, and also transfected with the JB1-SynBP1 fusion protein (lanes 4-8). […]
# (§2) Expression vector plasmids encoding various protein constructs were transfected into HEK293 cells with Lipofectamine 3000 transfection reagent (Thermo Fisher Scientific). Cell lysates were analyzed for expressed proteins using immunoblot assays. […] After brief sonication, the samples were analyzed for expressed proteins using immunoblot assays. […]
# (§3) Expressed proteins were detected using a chemiluminescent signal. […]
# Expression vector plasmids encoding various protein constructs were transfected into HEK293 cells with Lipofectamine 3000 transfection reagent (Thermo Fisher Scientific). […] After brief sonication, cell lysates were analyzed in ELISA or immunoblotting assay.
# [3] = target: T2, wildtype α-synuclein (Homo sapiens, UniProt P37840); assay: as above; conditions: wildtype Syn(WT), lanes 1-3
# T2 construct: expressed in transfected cells; host or cells: HEK293
# Experimental: as §1, with “FIG. 3B Lysates were prepared from HEK293 cells transiently transfected with wildtype Syn(WT) (lanes 1-3) or mutant Syn(A53T) (lane 4-6) alone or co-expressed with the fusion protein constructs. After brief sonication, the cell lysate was subjected to SDS-PAGE/immuno blotting with anti-α-synuclein antibody (Ab-2: top panel), Flag antibody (middle panel) or anti-Tubulin antibody (bottom panel).” left out
# as §2, §3
# [4] = target: T2, wildtype α-synuclein; assay: ELISA of aggregated α-synuclein (Syn-O4 capture) in lysates of transfected HEK293 cells; conditions: co-expression with wildtype α-synuclein, ELISA on cell lysates, bars 1-3
# Experimental: as §1, with “FIG. 3B Lysates were prepared from HEK293 cells transiently transfected with wildtype Syn(WT) (lanes 1-3) or mutant Syn(A53T) (lane 4-6) alone or co-expressed with the fusion protein constructs. After brief sonication, the cell lysate was subjected to SDS-PAGE/immuno blotting with anti-α-synuclein antibody (Ab-2: top panel), Flag antibody (middle panel) or anti-Tubulin antibody (bottom panel).” left out
# as §2
# The aggregation status of expressed α-synuclein was monitored with α-synuclein aggregate-specific antibody Syn-O4 (BioLegend). […]
# [5] = target: T3, mutant (A53T) α-synuclein phosphorylated at Ser129 (Homo sapiens, UniProt P37840, A53T); assay: Level of phosphorylated α-synuclein (Ser129) on co-expression of fusion protein constructs; conditions: Table 13, wildtype alone = 100%, mutant alone = 92.1%
# T3 construct: expressed in transfected cells
# [6] = HEK293, BFA at either 10 nM or 100 nM
# [7] = HEK293, MG132 (0.1 μM and 1 μM)
compound,measurement,setting,value
"CO/C1=C\C(C)=C\[C@@H](C)[C@@H](O)[C@@H](C)C/C(C)=C/C=C/[C@H](OC)[C@@H]([C@@H](C)[C@@H](O)[C@H](C)[C@@]2(O)C[C@@H](O)[C@H](C)[C@@H](C(C)C)O2)OC1=O [BFA, Bafilomycin A1, reference compound]",effect of inhibitor on aggregated α-synuclein in cells expressing mutant α-synuclein and construct 1,[1]; [6],restoration of total and aggregated α-synuclein to levels matching cells expressing mutant α-synuclein alone
same,effect of inhibitor on total α-synuclein in cells expressing mutant α-synuclein and construct 1,[2]; [6],restoration of total and aggregated α-synuclein to levels matching cells expressing mutant α-synuclein alone
"CC(C)C[C@@H](C=O)NC(=O)[C@H](CC(C)C)NC(=O)[C@H](CC(C)C)NC(=O)OCc1ccccc1 [MG132, reference compound] (Cbz-Leu-Leu-Leu-aldehyde)",effect of inhibitor on aggregated level of α-synuclein in cells expressing mutant α-synuclein and construct 1,[1]; [7],little effect
same,effect of inhibitor on total level of α-synuclein in cells expressing mutant α-synuclein and construct 1,[2]; [7],little effect
"Construct 2: Same as construct 1, but containing a P33Q mutation within the J domain (control)","overall level of α-synuclein (FIG. 3B, Western blot)",[3],relatively similar levels
same,"overall level of α-synuclein (FIG. 3B, Western blot)","[2]; HEK293 cells, mutant Syn(A53T), lanes 4-6",relatively similar levels
same,amount of detectable aggregated α-synuclein (FIG. 3A),[4],higher overall aggregation
"Construct 10: J domain from human DnaJB1 fused to 4XGGGGS linker, in turn, fused on its C-terminus to QBP1",ability to reduce mutant (A53T) synuclein aggregation (Table 11),[1]; Mutant (A53T),potently reduce α-synuclein aggregation
Construct 11: J domain from human DnaJB1 fused on its C-terminus to SynBP1 (with flexible GGGGS linker),Phosphorylated α-synuclein,[5],19.1%
Construct 12: J domain from human DnaJB1 fused on its C-terminus to SynBP1 (with rigid EAAAK linker),Phosphorylated α-synuclein,[5],23.1%
Construct 13: J domain from human DnaJB1 fused on its C-terminus to SynBP1 (no linker),Phosphorylated α-synuclein,[5],4.5%
